From patent US20120316071A1 (published 2012)

Experiments:
[1] = biological target: T1, rHuman P-Cadherin/Fc Chimera, CF (R&D Systems Cat#861-PC) (human, UniProt P22223 108-654); test: MSD ECL multispot assay, antigen spotted on plate, Fab in solution; blank spot of this row 282
T1 construct: Bought recombinant protein; not shown: Fc of the bought chimera

[2] = biological target: T2, rHuman HGF R/c-MET/Fc Chimera, CF (R&D Systems Cat#358-MT/CF) (human, UniProt P08581 25-932); test: as above
T2 construct: Bought recombinant protein; also called HGF R/Fc; not shown: Fc of the bought chimera
T2 sequence (P08581 25-932, change not shown): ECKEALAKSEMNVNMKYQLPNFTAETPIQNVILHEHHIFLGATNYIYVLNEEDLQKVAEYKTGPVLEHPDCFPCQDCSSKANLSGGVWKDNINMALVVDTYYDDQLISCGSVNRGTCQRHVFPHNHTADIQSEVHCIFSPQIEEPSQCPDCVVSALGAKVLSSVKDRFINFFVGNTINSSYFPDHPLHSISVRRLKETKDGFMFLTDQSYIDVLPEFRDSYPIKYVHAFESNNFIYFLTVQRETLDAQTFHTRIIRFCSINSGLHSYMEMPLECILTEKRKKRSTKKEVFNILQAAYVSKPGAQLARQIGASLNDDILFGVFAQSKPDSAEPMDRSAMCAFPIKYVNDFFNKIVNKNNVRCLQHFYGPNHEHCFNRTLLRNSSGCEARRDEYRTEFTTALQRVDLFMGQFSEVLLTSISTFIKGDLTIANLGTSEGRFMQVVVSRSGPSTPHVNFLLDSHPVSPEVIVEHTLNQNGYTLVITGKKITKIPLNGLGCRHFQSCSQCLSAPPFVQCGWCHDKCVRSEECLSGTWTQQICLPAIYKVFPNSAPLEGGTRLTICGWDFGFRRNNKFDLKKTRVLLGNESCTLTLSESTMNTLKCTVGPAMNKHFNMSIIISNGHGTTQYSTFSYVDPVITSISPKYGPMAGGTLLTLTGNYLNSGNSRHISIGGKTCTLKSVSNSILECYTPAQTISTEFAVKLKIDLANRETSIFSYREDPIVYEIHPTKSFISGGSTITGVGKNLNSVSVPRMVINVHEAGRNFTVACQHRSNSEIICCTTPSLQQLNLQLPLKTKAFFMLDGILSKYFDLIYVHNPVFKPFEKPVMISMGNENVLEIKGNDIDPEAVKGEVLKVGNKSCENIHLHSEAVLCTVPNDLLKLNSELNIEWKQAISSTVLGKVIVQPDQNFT

[3] = biological target: T3, Recombinant Human DLL4 (R&D Systems Cat#1506-D4/CF) (human, UniProt Q9NR61 27-524); test: as above
T3 construct: Bought recombinant protein; also called delta-like protein 4; rHuman DLL4

[4] = biological target: T4, rHuman ErbB2/Fc Chimera, CF (R&D Systems Cat#1129-ER) (human, UniProt P04626 23-652); test: as above
T4 construct: Bought recombinant protein; not shown: Fc of the bought chimera

[5] = biological target: T5, rHuman EGF R/Fc Chimera, CF (R&D Systems Cat#344-ER) (human, UniProt P00533 25-645); test: as above
T5 construct: Bought recombinant protein; not shown: Fc of the bought chimera

[6] = biological target: T6, rHuman IGF-1 sR (insulin-like growth factor-1 soluble receptor), CF (R&D Systems Cat#391-GR) (human, UniProt P08069 31-932); test: as above
T6 construct: Bought recombinant soluble receptor

[7] = biological target: T1, rHuman P-Cadherin/Fc Chimera, CF (R&D …); test: MSD ECL multispot assay, antigen spotted on plate, Fab in solution; blank spot of this row 277
[8] = biological target: T2, rHuman HGF R/c-MET/Fc Chimera, CF (R&D …); test: as above
[9] = biological target: T3, Recombinant Human DLL4 (R&D Systems …); test: as above
[10] = biological target: T4, rHuman ErbB2/Fc Chimera, CF (R&D …); test: as above
[11] = biological target: T5, rHuman EGF R/Fc Chimera, CF (R&D …); test: as above
[12] = biological target: T6, rHuman IGF-1 sR (insulin-like growth …); test: as above
[13] = biological target: T1, rHuman P-Cadherin/Fc Chimera, CF (R&D …); test: MSD ECL multispot assay, antigen spotted on plate, Fab in solution; blank spot of this row 274
[14] = biological target: T2, rHuman HGF R/c-MET/Fc Chimera, CF (R&D …); test: as above
[15] = biological target: T3, Recombinant Human DLL4 (R&D Systems …); test: as above
[16] = biological target: T4, rHuman ErbB2/Fc Chimera, CF (R&D …); test: as above
[17] = biological target: T5, rHuman EGF R/Fc Chimera, CF (R&D …); test: as above
[18] = biological target: T6, rHuman IGF-1 sR (insulin-like growth …); test: as above
[19] = biological target: T1, rHuman P-Cadherin/Fc Chimera, CF (R&D …); test: MSD ECL multispot assay, antigen spotted on plate, Fab in solution; blank spot of this row 278
[20] = biological target: T2, rHuman HGF R/c-MET/Fc Chimera, CF (R&D …); test: as above
[21] = biological target: T7, rHuman Notch-1/Fc Chimera, CF (R&D Systems Cat#3647-TK) (human, UniProt P46531 19-526); test: as above
T7 construct: Bought recombinant protein; not shown: Fc of the bought chimera

[22] = biological target: T3, Recombinant Human DLL4 (R&D Systems …); test: as above
[23] = biological target: T8, rHuman Erythropoietin R/Fc Chimera, CF (R&D Systems Cat#963-ER) (human, UniProt P19235 25-250); test: as above
T8 construct: Bought recombinant protein; also called EPO R; EPO R/Fc; not shown: Fc of the bought chimera
T8 sequence (looked up): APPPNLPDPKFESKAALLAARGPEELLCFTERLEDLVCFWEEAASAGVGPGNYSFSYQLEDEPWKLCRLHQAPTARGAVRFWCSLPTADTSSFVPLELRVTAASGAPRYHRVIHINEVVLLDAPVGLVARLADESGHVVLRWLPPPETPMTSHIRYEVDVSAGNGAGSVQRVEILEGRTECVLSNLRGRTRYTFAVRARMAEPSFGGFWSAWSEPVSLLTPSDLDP

[24] = biological target: T4, rHuman ErbB2/Fc Chimera, CF (R&D …); test: as above
[25] = biological target: T5, rHuman EGF R/Fc Chimera, CF (R&D …); test: as above
[26] = biological target: T9, rHuman CD44/Fc Chimera, CF (R&D Systems Cat#3660-CD) (human, UniProt P16070 21-220); test: as above
T9 construct: Bought recombinant protein; not shown: Fc of the bought chimera

[27] = biological target: T6, rHuman IGF-1 sR (insulin-like growth …); test: as above

B1: Fab VH1-46_IGHD6-6*01_IGHJ1*01 S102A/S103P/S104F/H111F (APFF) & L6_IGKJ1*01 (Fab, V domains shown)
VH: QVQLVQSGAEVKKPGASVKVSCKASGYTFTSYYMHWVRQAPGQGLEWMGIINPSGGSTSYAQKFQGRVTMTRDTSTSTVYMELSSLRSEDTAVYYCAREEYAPFSAEYFQFWGQGTLVTVSS
VL: not shown
notes: Fab; also called APFF / parent; H:APFF & L:wt
ECL signal [1]: 302 | ECL signal [2]: 321 | ECL signal [3]: 165000 | ECL signal [4]: 259 | ECL signal [5]: 290 | ECL signal [6]: 249 | ECL signal [7]: 299 | ECL signal [8]: 267 | ECL signal [9]: 165000 | ECL signal [10]: 311 | ECL signal [11]: 307 | ECL signal [12]: 221 | ECL signal [13]: 283 | ECL signal [14]: 339 | ECL signal [15]: 164000 | ECL signal [16]: 236 | ECL signal [17]: 266 | ECL signal [18]: 305

B2: Fab VH1-46_IGHD6-6*01_IGHJ1*01 S102A/S103P/S104F/H111F (APFF) & L6_IGKJ1*01 S92T (Fab, V domains shown)
VH: QVQLVQSGAEVKKPGASVKVSCKASGYTFTSYYMHWVRQAPGQGLEWMGIINPSGGSTSYAQKFQGRVTMTRDTSTSTVYMELSSLRSEDTAVYYCAREEYAPFSAEYFQFWGQGTLVTVSS
VL: EIVLTQSPATLSLSPGERATLSCRASQSVSSYLAWYQQKPGQAPRLLIYDASNRATGIPARFSGSGSGTDFTLTISSLEPEDFAVYYCQQRTNWPPWTFGQGTKVEIKR
notes: Fab; also called APFF / S92T
ECL signal [19]: 387 | ECL signal [20]: 290 | ECL signal [21]: 231 | ECL signal [22]: 54100 | ECL signal [23]: 424 | ECL signal [24]: 237 | ECL signal [25]: 295 | ECL signal [26]: 290 | ECL signal [27]: 308
